From PMC3100323

Target: T1, rCmeR C69S/C166S C69S;C166S (Campylobacter jejuni NCTC 11168?) (UniProt Q0PBE2)
T1 sequence: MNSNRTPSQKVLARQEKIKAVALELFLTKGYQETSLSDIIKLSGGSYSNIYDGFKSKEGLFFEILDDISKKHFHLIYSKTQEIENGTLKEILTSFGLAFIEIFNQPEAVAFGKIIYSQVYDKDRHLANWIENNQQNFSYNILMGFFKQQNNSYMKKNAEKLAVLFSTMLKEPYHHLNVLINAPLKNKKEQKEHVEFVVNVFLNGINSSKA
Assay: EMSA
Conditions: 20 mM HEPES pH 7.6, 1 mM EDTA, 10 mM ([…], room temperature 30 min

## AGGCTTTGTATTAGCTCCTATGCTTATTTAAATCAAACCCTAGGTTTTTCTCTCCTAGGGTTAAAATTTTTTCATTAGTTTTTAAGTATATACTACGCTATAATATTCATTTTTAATTTTCTTTAAGAAAGGAATTTAATGAAGATAAAAGTTGGGTTGATTTTTTCAGGTATTGCTTG (double strand) [cj0089 promoter (lipoprotein operon), 179 bp]
  binding: binds more weakly
